Numbered stars: 1 amine (or outer) side, 2 acyl side, 3 side chain; on linkers, the order of the positions; unused ones are H or OH. Square brackets hold non-standard residues; d marks the D form. Pro(4S-SH) = O=C([C@@H]1C[C@H](S[*:3])CN1[*:1])[*:2]; Trp(6-Cl) = N[C@@H](Cc1c[nH]c2cc(Cl)ccc12)C(=O)O; Oic = O=C(O)[C@@H]1C[C@@H]2CCCC[C@@H]2N1; Gly(octyl) = CCCCCCCC[C@H](N)C(=O)O; Cha = N[C@@H](CC1CCCCC1)C(=O)O
B1: Ex. 4 (peptide)
peptide: cyclo(FEWL[dA]WEF[dP]P)
SMILES: CC(C)C[C@@H]1NC(=O)[C@H](Cc2c[nH]c3ccccc23)NC(=O)[C@H](CCC(=O)O)NC(=O)[C@H](Cc2ccccc2)NC(=O)[C@@H]2CCCN2C(=O)[C@H]2CCCN2C(=O)[C@H](Cc2ccccc2)NC(=O)[C@H](CCC(=O)O)NC(=O)[C@H](Cc2c[nH]c3ccccc23)NC(=O)[C@@H](C)NC1=O
notes: cyclo(-P1..P8-template-)
B2: Ex. 25 (peptide)
peptide: cyclo([Cha]EWLAWEF[dP]P)
SMILES: CC(C)C[C@@H]1NC(=O)[C@H](Cc2c[nH]c3ccccc23)NC(=O)[C@H](CCC(=O)O)NC(=O)[C@H](CC2CCCCC2)NC(=O)[C@@H]2CCCN2C(=O)[C@H]2CCCN2C(=O)[C@H](Cc2ccccc2)NC(=O)[C@H](CCC(=O)O)NC(=O)[C@H](Cc2c[nH]c3ccccc23)NC(=O)[C@H](C)NC1=O
notes: cyclo(-P1..P8-template-)
B3: Ex. 1 (peptide)
peptide: cyclo(FE[Trp(6-Cl)]LAWEF[dP]P)
SMILES: CC(C)C[C@@H]1NC(=O)[C@H](Cc2c[nH]c3cc(Cl)ccc23)NC(=O)[C@H](CCC(=O)O)NC(=O)[C@H](Cc2ccccc2)NC(=O)[C@@H]2CCCN2C(=O)[C@H]2CCCN2C(=O)[C@H](Cc2ccccc2)NC(=O)[C@H](CCC(=O)O)NC(=O)[C@H](Cc2c[nH]c3ccccc23)NC(=O)[C@H](C)NC1=O
notes: cyclo(-P1..P8-template-)
B4: Ex. 5 (peptide)
peptide: cyclo(FT[Trp(6-Cl)]LAWEF[dP][Pro(4S-SH)])
SMILES: CC(C)C[C@@H]1NC(=O)[C@H](Cc2c[nH]c3cc(Cl)ccc23)NC(=O)[C@H]([C@@H](C)O)NC(=O)[C@H](Cc2ccccc2)NC(=O)[C@@H]2C[C@H](S)CN2C(=O)[C@H]2CCCN2C(=O)[C@H](Cc2ccccc2)NC(=O)[C@H](CCC(=O)O)NC(=O)[C@H](Cc2c[nH]c3ccccc23)NC(=O)[C@H](C)NC1=O
notes: cyclo(-P1..P8-template-)
B5: Ex. 3 (peptide)
peptide: cyclo(FEWLAWEW[dP][Oic])
SMILES: CC(C)C[C@@H]1NC(=O)[C@H](Cc2c[nH]c3ccccc23)NC(=O)[C@H](CCC(=O)O)NC(=O)[C@H](Cc2ccccc2)NC(=O)[C@@H]2C[C@@H]3CCCC[C@@H]3N2C(=O)[C@H]2CCCN2C(=O)[C@H](Cc2c[nH]c3ccccc23)NC(=O)[C@H](CCC(=O)O)NC(=O)[C@H](Cc2c[nH]c3ccccc23)NC(=O)[C@H](C)NC1=O
notes: cyclo(-P1..P8-template-)
B6: Ex. 26 (peptide)
peptide: cyclo([Cha]EWLAWE[Cha][dP]P)
SMILES: CC(C)C[C@@H]1NC(=O)[C@H](Cc2c[nH]c3ccccc23)NC(=O)[C@H](CCC(=O)O)NC(=O)[C@H](CC2CCCCC2)NC(=O)[C@@H]2CCCN2C(=O)[C@H]2CCCN2C(=O)[C@H](CC2CCCCC2)NC(=O)[C@H](CCC(=O)O)NC(=O)[C@H](Cc2c[nH]c3ccccc23)NC(=O)[C@H](C)NC1=O
notes: cyclo(-P1..P8-template-)
B7: Ex. 6 (peptide)
peptide: cyclo(FE[Trp(6-Cl)]LA[Gly(octyl)]EF[dP]P)
SMILES: CCCCCCCC[C@@H]1NC(=O)[C@H](C)NC(=O)[C@H](CC(C)C)NC(=O)[C@H](Cc2c[nH]c3cc(Cl)ccc23)NC(=O)[C@H](CCC(=O)O)NC(=O)[C@H](Cc2ccccc2)NC(=O)[C@@H]2CCCN2C(=O)[C@H]2CCCN2C(=O)[C@H](Cc2ccccc2)NC(=O)[C@H](CCC(=O)O)NC1=O
notes: cyclo(-P1..P8-template-)
B8: Ex. 18 (peptide)
peptide: cyclo(FE[Trp(6-Cl)]LDAEF[dP]P)
SMILES: CC(C)C[C@@H]1NC(=O)[C@H](Cc2c[nH]c3cc(Cl)ccc23)NC(=O)[C@H](CCC(=O)O)NC(=O)[C@H](Cc2ccccc2)NC(=O)[C@@H]2CCCN2C(=O)[C@H]2CCCN2C(=O)[C@H](Cc2ccccc2)NC(=O)[C@H](CCC(=O)O)NC(=O)[C@H](C)NC(=O)[C@H](CC(=O)O)NC1=O
notes: cyclo(-P1..P8-template-)
B9: Ex. 14 (peptide)
peptide: cyclo(FA[Trp(6-Cl)]LDWEF[dP]P)
SMILES: CC(C)C[C@@H]1NC(=O)[C@H](Cc2c[nH]c3cc(Cl)ccc23)NC(=O)[C@H](C)NC(=O)[C@H](Cc2ccccc2)NC(=O)[C@@H]2CCCN2C(=O)[C@H]2CCCN2C(=O)[C@H](Cc2ccccc2)NC(=O)[C@H](CCC(=O)O)NC(=O)[C@H](Cc2c[nH]c3ccccc23)NC(=O)[C@H](CC(=O)O)NC1=O
notes: cyclo(-P1..P8-template-)
B10: Ex. 13 (peptide)
peptide: cyclo(FE[Trp(6-Cl)]LDWAF[dP]P)
SMILES: CC(C)C[C@@H]1NC(=O)[C@H](Cc2c[nH]c3cc(Cl)ccc23)NC(=O)[C@H](CCC(=O)O)NC(=O)[C@H](Cc2ccccc2)NC(=O)[C@@H]2CCCN2C(=O)[C@H]2CCCN2C(=O)[C@H](Cc2ccccc2)NC(=O)[C@H](C)NC(=O)[C@H](Cc2c[nH]c3ccccc23)NC(=O)[C@H](CC(=O)O)NC1=O
notes: cyclo(-P1..P8-template-)

Molecular target: T1, NCoA-1 (UniProt Q15788 257-385, limits assumed)
T1 construct: also called SRC-1
T1 sequence (looked up): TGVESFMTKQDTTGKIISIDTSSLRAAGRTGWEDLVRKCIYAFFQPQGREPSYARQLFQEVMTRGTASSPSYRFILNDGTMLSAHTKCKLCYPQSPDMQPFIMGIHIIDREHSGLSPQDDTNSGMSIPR
Assay: competition fluorescence polarization; displacement of FluoSTAT6 from NCoA-1
Protocol: The mixtures were shaken thoroughly. Fluorescence polarization was measured on a SPECTRAmax M5 spectrometer (Molecular device) following 5-30 min incubation at room temperature. FluoSTAT6 was excited at 490 nm and emission polarization was detected at 525 nm. 40 intensity measurements were collected for each well, 20 at horizontal position of the dynamic polarizer, 20 at parallel position. As the fraction of FluoSTAT6 bound to NCoA-1 is correlated to the fluorescence polarization (FP), after normalization, the fraction of bound FluoSTAT6 (B) was determined, and the KD was calculated according to B=[(1+P/R+KD/R)−((1+P/R+KD/R)²−4P/R)^{0.5}]/2, wherein P is the total probe concentration, R the total protein concentration and KD the dissociation constant (M. H. Roehrl, J. Y. Wang, G. Wagner, Biochemistry 2004, 3, 16056).
To determine the Kᵢ values of potential inhibitors of the STAT6/NCoA-1 interaction (competition fluorescence polarization) the compounds (dilution series from 0 to 100 μM final concentration) dissolved in HEPES buffer (10 mM HEPES, 150 mM NaCl, 3.4 mM EDTA, 0.1% BSA) were dispensed in a black 96 well plate (Greiner) and FluoSTAT6 (200 nM final concentration) in HEPES buffer was added. The mixture was completed by a HEPES buffer solution of NCoA-1 (1 μM final concentration) and processed as described above. STAT6Y (C-terminal tyrosine extended STAT6 794-814 peptide) was used as a positive control. As the total fluorescence intensity of FluoSTAT6 remains similar for all samples, the fraction of peptide bound to NCoA-1 is correlated to the fluorescence polarization.
Following normalization data were fitted with IGORpro Software® (WaveMetrics, Lake Oswego, Oreg., USA) to a sigmoid equation to determine IC₅₀ values.

Going from B1 to B2, the Ki falls from 15 µM to 6 µM (2.5-fold). The second binds more tightly here.

Going from B3 to B4, the Ki rises from 0.7 µM to 3.8 µM (5.4-fold). The first binds more tightly here.

B5 and B6 are within 1.5-fold of each other in Ki: 6.2 µM for the first, 7.7 µM for the second.

B7 and B8 are within 1.5-fold of each other in Ki: 3.6 µM for the first, 3.3 µM for the second.

B9 and B10 are within 1.5-fold of each other in Ki: 1.4 µM for the first, 2 µM for the second.
